Key:
Format in all cases: cell-based, human
pMLC [1] = assay: Force transmission via ligand conjugated magnetic beads
Description: The ligands were conjugated to 4.5 μm epoxide paramagnetic beads (Dynabeads M-450 Epoxy, Thermo Fisher Scientific) according to the manufacturer's manual. Briefly, the beads were washed twice in 0.1 M sodium phosphate buffer, pH 7.4. Subsequently. 8×10^7 beads were conjugated to 20 μg sAgrin, BSA and FN per in 0.1 M sodium phosphate buffer at pH 7.4 for 16-18 h at 4° C. with gentle rotation throughout. The degree of protein conjugation to the beads was verified by a reducing SDS-PAGE gel analysis using a subset of ligand conjugated beads. The remaining beads were washed and subsequently stored in 0.1% BSA-phosphate buffered saline (PBS) pH 7.4 at 4° C. They were subsequently suspended in medium and added on the cells for 30 min at 37° C. After a brief wash with PBS to remove excess non-adherent beads, the cells were placed under a permanent neodymium magnet (J Magnetics, USA) at a distance of 6 mm apart for another 30 min that allowed a vertical tensile force in the magnitudes of ˜200 pN on the beads. The cells were then fixed in 4% paraformaldehyde, permeabilized and processed for immunofluorescence.

HEK cells = assay: Crossbow fibronectin micropatterns (geometric constraint)
Description: Tissue culture plates were coated with Col-T-gel (Fischer Scientific) of stiffness ranging from 0.8 KPa (soft) to 30 KPa (stiff) as per manufacturer recommendations and allowed to solidify for 40 min at 37° C. inside tissue culture incubators. Some experiments were performed with cells seeded on the poly-hydrogel plates of defined stiffness: 0.2 kPa and 16 kPa soft and hard polyhydrogels, respectively (CytoSoft, Advanced Biomatrix, Inc.,). The determination of stiffness of silicone substrates were done by the manufacturer as per previously published protocols. For certain experiments, indicated amounts of sAgrin was incorporated into the 0.8 KPa collagen gels before gelation process. Upon gelation, trypsinized cells or excised mouse skin explants were plated onto the gels of different stiffness either alone or containing sAgrin. The cells/tissues were incubated under standard culture condition with 500 μl recommended culture medium for the indicated days. The crossbow shaped micropatterns with fibronectin coated islands were generated by microlithography on a 19.5×19.5 mm coverslide from Cytoo, Inc., France. The micropatterns had surface areas of 800μ^2 or 1600μ^2, respectively. Fifty thousand cells after initial siRNA treatment was placed on the micropatterns for 4-6 h before processing them for immunofluorescence. […]

pMLC [2] = assay: Force transmission via ligand conjugated magnetic beads; remark: listed apart in the source

B1: sAgrin: C-terminus recombinant Agrin fragment containing 8 amino acid 'Z8' insert and LG3 domain (SEQ ID NO: 7), His-tagged, expressed in E. coli (protein)
chain: DTLAFDGRTFVEYLNAVTESELANEIPVEKALQSNHFELSLRTEATQGLVLWSGKATERADYVALAIVDGHLQLSYNLGSQPVVLRSTVPVNTNRWLRVVAHREQREGSLQVGNEAPVTGSSPLGATQLDTDGALWLGGLPELPVGPALPKAYGTGFVGCLRDVVVGRHPLHLLEDAVTKPELRPCPTP
modifications: His tag
- pMLC recruitment with increasing sAgrin coated beads (pMLC [1]; 30 min post-wound scratch): greater pMLC recruitment at 30 min post-wound scratch in a dose-dependent fashion
- pMLC intensity in MMP12 depleted cells after force transmission (pMLC [1]; 30 min post-wounding): unable to rescue the reduced pMLC intensity
- pMLC recruitment near beads in control cells with exogenous force (pMLC [1]; 30 min post-wounding): further surged pMLC recruitment
- pMLC recruitment upon force in Agrin depleted cells (confocal) (pMLC [1]; 30 min post-wounding, compared to FN or BSA beads): enhanced pMLC recruitment upon force application
- MMP12 recruitment in pMLC activated regions (pMLC [1]; Agrin depleted cells, force transmission): effectively enhanced MMP12 recruitment in pMLC activated regions
- increase of pMLC around the bead vicinity (pMLC [1]; Agrin depleted cells, force with sAgrin beads 30 min): ~2 folds
- activated integrin β1-Agrin localization (pMLC [1]; control migrating keratinocytes, ligand beads, force): substantially increased activated integrin β1-Agrin localization
- rescue of reduced pMLC in Agrin depleted cells by force through ligand beads (pMLC [1]; siAgrin cells): only restored by force transduced by sAgrin
- F-actin stress fibers and pMLC in small crossbow patterns (HEK cells; 800μ^2 patterns, 20 μg/ml sAgrin): partially rescued F-actin stress fibers and higher pMLC recruitment to the transverse arc
- stress fiber formation in large crossbow patterns (HEK cells; 1600μ^2 patterns): further accentuated
- tension curvatures at transverse arcs (HEK cells; large crossbow patterns): significantly higher tension curvatures
- F-actin stress fibers and pMLC in MMP12 knockdown cells (HEK cells; large crossbow patterns, sAgrin nourishment): did not exhibit F-actin stress fibers and pMLC enrichment in the transverse arcs
- tension signature in Agrin depleted cells (HEK cells; sAgrin in FN crossbow matrix, large patterns): restored the tension signature of F-actin stress fiber network and pMLC enriched transverse arcs
- pMLC recruitment in control cells upon force (bead pull-down Western) (pMLC [2]; siControl cells): greater pMLC recruitment in control cells compared to FN, but similar to that induced by Syndecan-4
- pMLC with temporal increase of force application (pMLC [2]; up to 60 min): enhanced pMLC mechanoperception
